Columns and labels:
[1] = target: T1, human Follistatin-like-3 (FSTL3) protein, 6-His tagged (human, UniProt O95633 27-263, limits assumed); experiment: Western blot
T1 construct: Made in-house as a secreted protein from stably transfected 293 cells; also called hFSTL3; human FSTL3; not shown: 6-His tag
T1 sequence (looked up): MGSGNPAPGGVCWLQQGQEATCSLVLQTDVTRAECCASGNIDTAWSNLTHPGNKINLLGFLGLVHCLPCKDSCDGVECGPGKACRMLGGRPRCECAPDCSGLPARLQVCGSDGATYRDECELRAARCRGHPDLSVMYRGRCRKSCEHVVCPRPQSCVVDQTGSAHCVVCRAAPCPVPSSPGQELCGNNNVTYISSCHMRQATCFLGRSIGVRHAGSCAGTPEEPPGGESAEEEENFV
Method: (§1) Secondary antibody (donkey anti-mouse IgG-Horse Radish Peroxidase label) was purchased from Jackson Immuno Research in West Grove Pa. Human FSTL3 was produced by Fairbanks Pharmaceuticals by cloning the human FSTL3 cDNA into an expression plasmid containing a 6-His tag. 293 cells were transfected with this plasmid and stable colonies selected. Cells were grown for 7-14 days, medium collected, and FSTL3 was purified on Nickel-Sepharose-Sephadex Beads (GE Healthcare Life Sciences, Pittsburgh Pa. Ligands: activin A (Cat No:338-AC-050), activin B (Cat No:659-AB-005), and MSTN (Cat No:788-68-010) were purchased from R&D Systems (Minneapolis, Minn.). GDF11 (Cat No:TP723130), was purchased from Origene (Rockville Md.)
(§2) Direct binding studies were conducted by performing Western blot, a technique well known in the art. Pre-determined doses of human FSTL3 (hFSTL3) or mouse FSTL3 (mFSTL3), that are easily detectable at the end of experimentation, were loaded onto SDS gels (10% NuPage gels). After electrophoresis, proteins were transferred to PVDF membranes and then tested with the selected and purified anti-hFSTL3 antibodies from FIG. 3.

mouse FSTL3 = target: T2, mouse FSTL3 (mouse, UniProt Q9EQC7 24-256, limits assumed); experiment: Western blot
T2 construct: also called mFSTL3
T2 sequence (looked up): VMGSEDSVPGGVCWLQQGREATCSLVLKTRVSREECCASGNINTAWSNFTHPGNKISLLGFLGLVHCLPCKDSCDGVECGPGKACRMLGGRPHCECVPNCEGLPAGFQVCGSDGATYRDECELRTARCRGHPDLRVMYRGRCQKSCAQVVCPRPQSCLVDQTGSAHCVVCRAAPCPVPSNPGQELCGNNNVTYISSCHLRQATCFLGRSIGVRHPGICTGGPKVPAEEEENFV
Method: as §1, §2

binding result [1]: binds
binding result (mouse FSTL3): binds
B1: FP-102 anti-hFSTL3 monoclonal antibody (antibody, V domains shown)
VH: QVKLQQPGAELVKPGASVKLSCKASGYTFTSYWMHWVNQRPGQGLEWIGEINPGNGRTNYNEKFKSKATLTVDKSSSTAYMQLSSLTSEDSAVYFCARWLLPRGPMDYWGQGTSVTVSS
VL: DIVLTQSQKFMSTSVGDRVSVTCKASQNVGTNVAWYQQKPGQSPQGLIYSASYRYSGVPDRFTGSGSGTDFTLTISNVQSEDLAEYFCQQYNSYPLTFGAGTKLELKR
notes: Murine monoclonal from Balb-C mice; also called clone 33

From patent publication US20200190171A1 (FAIRBANKS PHARMACEUTICALS, published 2020)
